{"source": "the DeepSol protein solubility set"}
{"assay": "soluble on expression in E. coli; label from the status in PepcDB or PDB records"}
{"sequence": "MSQPIYKRILLKLSGEALQGEDGLGIDPAILDRMAVEIKELVEMGVEVSVVLGGGNLFRGAKLAKAGMNRVVGDHMGMLATVMNGLAMRDSLFRADVNAKLMSAFQLNGICDTYNWSEAIKMLREKRVVIFSAGTGNPFFTTDSTACLRGIEIEADVVLKATKVDGVYDCDPAKNPDAKLYKNLSYAEVIDKELKVMDLSAFTLARDHGMPIRVFNMGKPGALRQVVTGTEEGTTICLEHHHHHH", "soluble on expression in E. coli": "not soluble"}
{"sequence": "MKKYILSLDQGTTSSRAILFNKKGEIVHSAQKEFTQHFPKPGWVEHNAQEIWGSILAVIATCLSEADVKPEQIAGIGITNQRETAVVWDKTTGKPIYNAIVWQSRQTAEICDELKEKGYSEMVREKTGLLIDAYFSGTKVKWILDNVEGAREKAENGDLLFGTIDTWLVWKLSGGKAHVTDYSNASRTLMFNIHDLQWDDELLDMLTVPKSMLPEVRPSSEVYGETIDYHFFGQNVPIAGVAGDQQAALFGQACFGEGMAKNTYGTGCFMLMNTGEKAVASEHGLLTTIAWGIDGKVNYALEGSIFVAGSAIQWLRDGMRMFKDASESEVYASRVESTDGVYVVPAFVGLGTPYWDSEVRGAMFGVTRGTTKEHFIRATLESLAYQIKDVLCAMEADSGIELKTLRVDGGAVKNNFLMKFQSDILDVPVERPVINETTALGAAYLAGLAVGYWKNQDEIKEQWHMDKRFEPTMEAETSEELYAGWKKAIEATKAFK", "soluble on expression in E. coli": "not soluble"}
{"sequence": "MAHHHHHHMKTKVELKFLGGLESYLANKSKNYVSLEIESEEFNFENLIAYIRNHIIVDRKDVFSDFVMSDGNVKSCNVMIDDKEYSNYNLSDKGKIKPGIIVLINEYDWEILDTYTYKIKNNDKICFLSTLHGG", "soluble on expression in E. coli": "soluble"}
{"sequence": "MTSRSNSGPGIQRRRGAIKHARVHEIRGHQFVATFFRQPHFCSLCSDFMWGLNKQGYQCQLCSAAVHKKCHEKVIMQCPGSAKNTKETMALKERFKVDIPHRFKTYNFKSPTFCDHCGSMLYGLFKQGLRCEVCNVACHHKCERLMSNLCGVNQKQLSEMYHEIKRGTHATASCPPNIANLHLNGETSKNNGSLPNKLKNLFKSHQYSVEEQKETDEYMDNIWGGGDGPVKKFALPHFNLLKVLGKGSFGKVMLVELKGKNEFYAMKCLKKDVILEDDDTECTYIERRVLILASQCPFLCQLFCSFQTNEYLFFVMEYLNGGDLMHHIQQIKKFDEARTRFYACEIVVALQFLHTNNIIYRDLKLDNVLLDCDGHIKLADFGMAKTEMNRENGMASTFCGTPDYISPEIIKGQLYNEAVDFWSFGVLMYEMLVGQSPFHGEGEDELFDSILNERPYFPKTISKEAAKCLSALFDRNPNTRLGMPECPDGPIRQHCFFRGVDWKRFENRQVPPPFKPNIKSNSDASNFDDDFTNEKAALTPVHDKNLLASIDPEAFLNFSYTNPHFSK", "soluble on expression in E. coli": "not soluble"}
{"sequence": "MHAILNTFKSGVGDCVFMRLIKDDATFSIMIDCGKYTPEINLFIKEKLHKHIDLLIVTHIDDDHINGVCEMLIAMPEITIGKIFYNCYQLLSGEKIAALTKIVSSDIEILTQNLPKQRTDTNGKINMEHASVLASILLKNPQWNSAWEKTFYIENSLEPYPLGDGLGQLVFISPTSSELKTLDMNFAREYLRLTRHEVINAPFEGRETLFELVSRLVSMKIREREYVKKQKIAGLIDKYSVERWKKAKDFEPSGITDENKGSIAFIWEYKDTKVLFMGDAEPDIVKTAIVNKYGKVDNMKAIKVSHHGSKHSTSKELMEVIDSFDYFITGGSVGDKPSMETLVKIVDRGDNKVRTIHYNYDRNILMKDMASDESVELRQKYNFQIDTNNELEFEY", "soluble on expression in E. coli": "not soluble"}
{"sequence": "MAAPKLGFFEKIANLTGALYRHQHAQFPRRFAILKAVGKHELAPPRQADWPAIKADWAKVQSFIQTGGYKNLSIREGLVYTAVTLEVVFWFFVGEMIGRRYIFGYLVPADYVSKSTKKTVKEQEALAALEN", "soluble on expression in E. coli": "not soluble"}
{"sequence": "MSLSGSDYCFSTLGCSELSLHETADLTERHGIANVELRALSGTIDLIAALTAEFGTPARFAAFLSERNLRVAALNTSMRLFGSDSLSEIEPFIDWAEAANIAYLRIFDGGKKIGPEDLDRSAALLDNWQAVRQTRGLNVDLMIETHDALSDFEQLLTFIEQVPAARILWDTHHTWAKGSNLKMVWRQIERNVVHLHVKDSVMDSDRERRYVLPGQGEFPISELLSLILPNERQIPLSLEWERHWHPQLPPLADALKAAHSWWRQGVSEGHHHHHH", "soluble on expression in E. coli": "soluble"}
{"sequence": "MSLTKVSAFFSTCKAGVFLGWDRNIDTSIAYTDGYSNRLDIISYDLCNWNGNNDSSSISWDSASTIRDLQKPNIPLIKQYKGPYAHLIKNVIISAHMPCPTGGTSNGSISPQDFATLANTKIQDINSSSPWFLQNYKAIVSKVGDGLEYYGHVGTVYFRPFHEVNGNWFWWGDKDVSQYKQLWINLHDYLVSKNSGCRGLTWLKFCYAPNSGKNAALYYPGDDYVDMVGMDAYSDNPSTDTYVKRAYAELTGGTYNGVTYPGIDKPFGFPELGPNVGGDYVDNKNRLIKKFDYKRWSDAIKLNYPKASYFIIWNGGYEPRNNDNGTSLFNMSYEGHHHHHH", "soluble on expression in E. coli": "soluble"}
{"sequence": "MISAIILSGGKAERMGGEKSFRKSGNKYLIENIADMLIEMEIPFVTVFKNPRFMEKPEEEIEKQLYYYKKYHQTITWDFVPGMGPLIGMLSGMLNTKSQWVFLVPCDMPFITEESIINLLSFIKEAELNGYDCIVPKHKNGFIEPLFSLYHISSVNVLGMVVEEMLEQNRSFPIRRLIDELNPLYVDVDKIDKTCDIFINLNTLKELENACFDRLEHHHHHH", "soluble on expression in E. coli": "soluble"}
{"sequence": "MFLKAGESKTVTIDLDERAFAYWSEKYNDWHVEAGEYAIEVGVSSRDIADTVAVALDGDGKTQPLTEWSTYGEWEADPFGAKIVAAVAAAGEAGELTKLPDNAMMRMFLNPMPINSLPTLLGEGGKKIAQFMVDEYAKLAK", "soluble on expression in E. coli": "not soluble"}
{"sequence": "RVAHLLKKIHNSRPLLSMLKRMEMEPITPEIMLNKINASLSREVLTHHIVRKSLTYLEEHIPSLDSRFFTVVHGDVNHNNWLLSDRDELFLVDWEGAMIADPAIDIGMLLYNYVPQQQWSEWLETYGVQESLNLNKRMKWY", "soluble on expression in E. coli": "not soluble"}
{"sequence": "MHAITNSGWVEVITGSMFSGKTEELLRRLRRAEIAGQDVAAVTPAVDDRYGEATLGSHAGRSWAATVVEPTAEGVASIPTLLNGEQVVAIDEANFFPAELVDVCQELAADGRRVVLSGTDQTFRGEPFEPVPQLMAIAEYVDKMRAICMQCGEPATRNQRLIEGEPAHYDDPTVMVGAEETYEARCRNCHVVRRELEHHHHHH", "soluble on expression in E. coli": "not soluble"}
{"sequence": "MATNESIMTLPLASKFKAEARAMADRGLSTYEAVYQLNKLEEQDKPRADAIMALDESGDYQPLLRAMANVPCIDVGTAKSILSMTIEQERPKVAPELTAAFENFMDMHSPQAVSAGMAYDGRNQGDDGDIDRILKTI", "soluble on expression in E. coli": "soluble"}
{"sequence": "MGSDKIHHHHHHMYGNKIVFSGLENIKDCCKMKITRDELLIAAFKLFMSVNYEKASFAELGKMLGMSKAGIFKYYKNKQELFIAVVDKFWFSTQNPRNKFTETNGTFAEFIDEYVRGVQRTMDMLGDLIGAEREKVAQGKFTYHAQYFHFLFQLLQYDPDAKEKLRNLVEVDYAYWRAAIQRAIATGELREDVDVEDAVVMFRQVYMGLSFEMAFMGGLNTQRLAKHLHAVYSLLKR", "soluble on expression in E. coli": "not soluble"}
{"sequence": "MDTDAIRSEIFGQLARPDNSGIPKYRRLSNILVEAIRRGVWQPGDRLPAEEQLTEMTPFSLGTVQRALRALTDEGLVIRMQGHGNFVADQQRQMADPWHCRFLDDESDGIVPIYSKAVQRAVVTPSETGPWQRYLHSGSVMRLDRIINVNDEFRIFSRFYADRELLQPLWHVPLEELDGANFKDIIMRQVGLPITEIDRSVRIRRIDAQAARLIGVAPEATVLFMQAVARAGRDACIYYQEFYIPETGRALQLPEQRPRVHGR", "soluble on expression in E. coli": "not soluble"}
{"sequence": "MASEKPLAAVTCTAPVNIAVIKYWGKRDEELVLPINSSLSVTLHQDQLKTTTTAVISKDFTEDRIWLNGREEDVGQPRLQACLREIRCLARKRRNSRDGDPLPSSLSCKVHVASVNNFPTAAGLASSAAGYACLAYTLARVYGVESDLSEVARRGSGSACRSLYGGFVEWQMGEQADGKDSIARQVAPESHWPELRVLILVVSAEKKLTGSTVGMRASVETSPLLRFRAESVVPARMAEMARCIRERDFPSFAQLTMKDSNQFHATCLDTFPPISYLNAISWRIIHLVHRFNAHHGDTKVAYTFDAGPNAVIFTLDDTVAEFVAAVWHGFPPGSNGDTFLKGLQVRPAPLSAELQAALAMEPTPGGVKYIIVTQVGPGPQILDDPCAHLLGPDGLPKPAA", "soluble on expression in E. coli": "soluble"}
